Residue numbers refer to the chain shown, from its start.

These results are taken from patent US20260209386A1 (MYTHIC THERAPEUTICS, published 2026).

In the assay the target is T1, Human PTK7 Protein, His Tag, Acro Biosystems (human, UniProt Q13308 31-704).
T1 construct: Bought recombinant protein; also called CCK4; not shown: His tag
T1 sequence: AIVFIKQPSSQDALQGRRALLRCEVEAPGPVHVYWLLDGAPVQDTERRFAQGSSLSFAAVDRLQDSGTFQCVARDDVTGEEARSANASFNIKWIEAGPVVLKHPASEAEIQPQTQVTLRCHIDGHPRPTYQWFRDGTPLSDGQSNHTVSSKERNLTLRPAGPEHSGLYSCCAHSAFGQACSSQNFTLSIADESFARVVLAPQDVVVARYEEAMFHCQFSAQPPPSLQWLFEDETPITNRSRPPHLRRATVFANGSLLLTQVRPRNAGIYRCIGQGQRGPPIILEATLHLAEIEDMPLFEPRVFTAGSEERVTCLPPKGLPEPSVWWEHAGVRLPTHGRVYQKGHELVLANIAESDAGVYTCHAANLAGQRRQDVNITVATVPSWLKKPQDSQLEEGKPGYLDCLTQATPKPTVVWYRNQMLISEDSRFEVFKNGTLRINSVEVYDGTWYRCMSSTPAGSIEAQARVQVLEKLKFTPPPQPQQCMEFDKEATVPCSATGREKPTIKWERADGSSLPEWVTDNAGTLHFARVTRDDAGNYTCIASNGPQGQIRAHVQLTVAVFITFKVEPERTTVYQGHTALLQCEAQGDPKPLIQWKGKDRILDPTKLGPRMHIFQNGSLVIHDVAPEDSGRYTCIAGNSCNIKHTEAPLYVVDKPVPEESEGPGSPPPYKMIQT
In words: BLI, anti-human Fc capture, 50 nM PTK7; 2 = substantially similar binding relative to parent. Background: BLI is a label-free optical method that tracks binding on a fibre tip over time.

B1: MYT11104 (antibody, V domains shown)
VH: EVQLVESGGGLVQPGGSLRLSCTASGFHLSTYAMSWVRQAPGKGLEWVGMIYINDNTYYASWAKGRFTISRDTSKNTVYLQMNSLRAEDTAVYFCARDIGISYYIGVSLWGQGTLVTVSS
VL: EIVMTQSPSTLSASVGDRVIITCQASQSIGTRLSWYQQKPGKAPKLLIYGASKLATGVPSRFSGSGSGAEFTLTISSLQPDDFATYYCLGEYSYTTTDGIAFGQGTKLTVL
notes: MYT9412 HC variant
In the case of B1, the binding result is given as “binds”.

B2: MYT11127 (antibody, V domains shown)
VH: B1 VH with H28S, G65H
VL: B1 VL
notes: MYT9412 HC variant
B2: the binding result is listed as “binds”.

B3: MYT11124 (antibody, V domains shown)
VH: B1 VH with H28S, W62H
VL: B1 VL
notes: MYT9412 HC variant
B3: the binding result is given as “binds”.

B4: MYT11138 (antibody, V domains shown)
VH: B1 VH with H28S, G106H
VL: B1 VL
notes: MYT9412 HC variant
For the molecule B4, the binding result is “binds”.

B5: MYT11110 (antibody, V domains shown)
VH: B1 VH with H28S, M34H
VL: B1 VL
notes: MYT9412 HC variant
B5: the binding result is listed as “binds”.

B6: MYT11119 (antibody, V domains shown)
VH: B1 VH with H28S, T57H
VL: B1 VL
notes: MYT9412 HC variant
B6: the binding result was “binds”.

B7: MYT11116 (antibody, V domains shown)
VH: B1 VH with H28S, N54H
VL: B1 VL
notes: MYT9412 HC variant
On to B7, for which the binding result is listed as “binds”.

B8: MYT11113 (antibody, V domains shown)
VH: B1 VH with H28S, I51H
VL: B1 VL
notes: MYT9412 HC variant
B8: the binding result is “binds”.

B9: MYT11118 (antibody, V domains shown)
VH: B1 VH with H28S, N56H
VL: B1 VL
notes: MYT9412 HC variant
On to B9, for which the binding result is listed as “binds”.

B10: MYT11123 (antibody, V domains shown)
VH: B1 VH with H28S, S61H
VL: B1 VL
notes: MYT9412 HC variant
For the molecule B10, the binding result is “binds”.

B11: MYT11126 (antibody, V domains shown)
VH: B1 VH with H28S, K64H
VL: B1 VL
notes: MYT9412 HC variant
B11: the binding result was “binds”.

B12: MYT11129 (antibody, V domains shown)
VH: B1 VH with H28S, R97H
VL: B1 VL
notes: MYT9412 HC variant
Turning to B12, the binding result is “binds”.

B13: MYT11135 (antibody, V domains shown)
VH: B1 VH with H28S, Y103H
VL: B1 VL
notes: MYT9412 HC variant
Turning to B13, the binding result is “binds”.

B14: MYT11121 (antibody, V domains shown)
VH: B1 VH with H28S, Y59H
VL: B1 VL
notes: MYT9412 HC variant
Take B14: the binding result is reported as “binds”.

B15: MYT11109 (antibody, V domains shown)
VH: B1 VH with H28S, A33H
VL: B1 VL
notes: MYT9412 HC variant
With B15, the binding result is given as “binds”.

B16: MYT11122 (antibody, V domains shown)
VH: B1 VH with H28S, A60H
VL: B1 VL
notes: MYT9412 HC variant
Regarding B16, the binding result is reported as “binds”.

B17: MYT11125 (antibody, V domains shown)
VH: B1 VH with H28S, A63H
VL: B1 VL
notes: MYT9412 HC variant
As for B17, the binding result was “binds”.
